Reference: paper PMC5776092

Molecular target: cysteine deficient variant of the human neuropeptide Y receptor type 2 (Y2R), refolded and reconstituted into DMPC/DHPC-c7 bicelles (human) (UniProt P49146)

apparent GTPγS binding rate k of Gαi1 (intrinsic W211 tryptophan fluorescence, nucleotide exchange), Y2R in isotropic bicelles activated with 10 fold excess of NPY, 16°C: 0.06 s⁻¹ | apparent GTPγS binding rate k of Gαi1 (intrinsic W211 tryptophan fluorescence, nucleotide exchange), Y2R in non-isotropic bicelles activated with 10 fold excess of NPY, 16°C: 0.045 s⁻¹
Substance: pre-assembled Gαi1β1γ1 heterotrimer (from UniProt P10824 1-354; P62871 1-340; P02698 1-74) (complex)
